Experimental data: the supplement of paper PMC10126150
± gives the standard deviation of the averaged measurements.
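Further: ATP exposure 15 min at 22 °C before imaging.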

These sequences were tested on ATP (assay: switch fluorescence ratio, 500 uM ATP over buffer (Cy3 cluster intensity, sum of 5 cycles each) (fold (ratio)); higher = stronger signal-on switching upon ATP binding; sequences stand for … in TCGTCGGCAGCGTCAGATGTGTATAAGAGACAGTTTTTTTTTTTTTTTTTTTTTTTTT…TC). Conditions: aptamer strand: ATP DNA aptamer (quencher-CACCTGGGGGAGTATTGCGGAGGAAGG + anchor), 100 nM annealed; ATP concentration: 500 uM.
Procedure, shortened: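 Between each of five buffer/ATP cycles, the flow-cell was stripped with NaOH and re-annealed. Each cycle imaged Cy3-labelled switching-strand clusters, annealed to 100 nM quencher-labelled ATP aptamer on a modified Illumina MiSeq flow-cell, first in selection buffer and then after 15 min with 500 uM ATP at 22 °C. The fluorescence ratio is summed target-cycle over summed buffer-cycle Cy3 intensity per cluster, averaged per switch-domain sequence, with clusters outside 100-1000 RFU excluded.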
AAAAAAAAGA showed a switch fluorescence ratio of 0.996 ± 0.048. AAAAAAAAGG showed a switch fluorescence ratio of 1 ± 0.05. Work on AAAAAAAGCG yielded a switch fluorescence ratio of 0.979 ± 0.058. For AAAAAACGTG, the switch fluorescence ratio was 1.06 ± 0.091. AAAAAAGAAT showed a switch fluorescence ratio of 0.9938 ± 0.0096. Work on AAAAAAGGAC yielded a switch fluorescence ratio of 1.03 ± 0.044. AAAAAATCGG gave a switch fluorescence ratio of 1 ± 0.019. For AAAAAATGGG, the switch fluorescence ratio was 1.01 ± 0.012. Work on AAAAACACCG yielded a switch fluorescence ratio of 1.09 ± 0.078. Sequence AAAAACGGCT has a switch fluorescence ratio of 0.99 ± 0.017. For AAAAACGTCA, the switch fluorescence ratio was 1.003 ± 0.0045. AAAAACTGAA was tested, and the switch fluorescence ratio was 1.01 ± 0.02. With AAAAAGAAAG the switch fluorescence ratio was 1.02 ± 0.022. In the case of AAAAAGATTT, the switch fluorescence ratio is reported as 1.05 ± 0.081. With AAAAAGCTTT the switch fluorescence ratio was 1.026 ± 0.0047. Sequence AAAAAGGAGG has a switch fluorescence ratio of 1 ± 0.015. For AAAAAGGCTA, the switch fluorescence ratio was 1.03 ± 0.017. AAAAAGTCGC gave a switch fluorescence ratio of 0.961 ± 0.022. AAAAAGTGGT was tested, and the switch fluorescence ratio was 0.9827 ± 0.0041. Work on AAAAATACGG yielded a switch fluorescence ratio of 0.965 ± 0.057. Sequence AAAAATATGA has a switch fluorescence ratio of 1.01 ± 0.053. With AAAAATGAGA the switch fluorescence ratio was 0.998 ± 0.043. For AAAAATGTTG, the switch fluorescence ratio was 1 ± 0.053. AAAAATTCCG showed a switch fluorescence ratio of 1.045 ± 0.0036. AAAACACAGA was tested, and the switch fluorescence ratio was 1.15 ± 0.14. Work on AAAACACGTA yielded a switch fluorescence ratio of 1.13 ± 0.035. AAAACGCGGT gave a switch fluorescence ratio of 1.2 ± 0.042. In the case of AAAACGGAGA, the switch fluorescence ratio is reported as 1.02 ± 0.014. AAAAGAGGTG was tested, and the switch fluorescence ratio was 1.08 ± 0.034. Sequence AAAAGATAAA has a switch fluorescence ratio of 0.977 ± 0.023. In the case of AAAAGCAGGG, the switch fluorescence ratio is reported as 1 ± 0.014. With AAAAGCGGAT the switch fluorescence ratio was 1.025 ± 0.0063. Work on AAAAGCGTTG yielded a switch fluorescence ratio of 0.999 ± 0.013. With AAAAGGAGTT the switch fluorescence ratio was 0.998 ± 0.016. In the case of AAAAGGCCGT, the switch fluorescence ratio is reported as 1.02 ± 0.0058. In the case of AAAAGGCGGT, the switch fluorescence ratio is reported as 1.01 ± 0.012. For AAAAGGGATT, the switch fluorescence ratio was 0.98 ± 0.012. AAAAGGGGCA was tested, and the switch fluorescence ratio was 1.04 ± 0.051. AAAAGGGTA was tested, and the switch fluorescence ratio was 0.957 ± 0.048. Work on AAAAGGTCAG yielded a switch fluorescence ratio of 1.01 ± 0.021. Sequence AAAAGTAACC has a switch fluorescence ratio of 0.993 ± 0.026. In the case of AAAAGTAGGA, the switch fluorescence ratio is reported as 0.984 ± 0.065. Sequence AAAAGTATAA has a switch fluorescence ratio of 1.03 ± 0.036. AAAAGTTGGT gave a switch fluorescence ratio of 1.02 ± 0.083. AAAAGTTTGT gave a switch fluorescence ratio of 1 ± 0.032. AAAATAAGGC showed a switch fluorescence ratio of 0.981 ± 0.03. For AAAATAATTC, the switch fluorescence ratio was 1 ± 0.059. AAAATATAGA gave a switch fluorescence ratio of 0.9798 ± 0.0025. AAAATCAGCC gave a switch fluorescence ratio of 1.07 ± 0.053. AAAATCAGGC showed a switch fluorescence ratio of 0.944 ± 0.085. Sequence AAAATCGGGA has a switch fluorescence ratio of 1 ± 0.035. In the case of AAAATCTGCG, the switch fluorescence ratio is reported as 1.03 ± 0.041. AAAATCTTGT gave a switch fluorescence ratio of 1.04 ± 0.0066. In the case of AAAATGCGGT, the switch fluorescence ratio is reported as 0.996 ± 0.015. AAAATGCGTT showed a switch fluorescence ratio of 1.02 ± 0.029. Work on AAAATGGCCA yielded a switch fluorescence ratio of 1.02 ± 0.083. AAAATGGGCC was tested, and the switch fluorescence ratio was 0.963 ± 0.033. In the case of AAAATGGGGC, the switch fluorescence ratio is reported as 1 ± 0.037. AAAATGTCGG showed a switch fluorescence ratio of 0.998 ± 0.012. In the case of AAAATGTTTT, the switch fluorescence ratio is reported as 1.02 ± 0.031. AAAATTATC was tested, and the switch fluorescence ratio was 0.997 ± 0.019. AAAATTCGTA showed a switch fluorescence ratio of 1.028 ± 0.0022. Sequence AAAATTTAAC has a switch fluorescence ratio of 1.01 ± 0.023. AAAATTTCAA was tested, and the switch fluorescence ratio was 1.011 ± 0.0042. Work on AAAATTTGTT yielded a switch fluorescence ratio of 1 ± 0.015. Work on AAAATTTTGG yielded a switch fluorescence ratio of 1 ± 0.043. AAACACAGGG was tested, and the switch fluorescence ratio was 1.07 ± 0.063. AAACAGGGGG showed a switch fluorescence ratio of 0.982 ± 0.028. In the case of AAACAGTAGA, the switch fluorescence ratio is reported as 1.07 ± 0.042. AAACATTTTG was tested, and the switch fluorescence ratio was 1.02 ± 0.036. AAACCGACAT gave a switch fluorescence ratio of 1.27 ± 0.03. In the case of AAACCGGAAC, the switch fluorescence ratio is reported as 2.26 ± 0.1. AAACCGGGAC gave a switch fluorescence ratio of 1.55 ± 0.15. AAACCTATGG showed a switch fluorescence ratio of 0.986 ± 0.055. AAACGAAAAA showed a switch fluorescence ratio of 1.04 ± 0.044. AAACGAATGG was tested, and the switch fluorescence ratio was 0.981 ± 0.022.
